According to US20170152311A1 (published 2017):
Numbering of substitutions follows the chain as printed. Values belong to the binder of their own block, whether it stands above or below them.

Legend:
[1] = target: T1, recombinant human M-CSF (human, UniProt P09603 33-190, limits assumed); assay: SPR (Biacore), M-CSF amine-coupled on CM5 chip, antibody flowed
T1 construct: The active form is described as a disulfide bonded dimer; also called M-SCF; CSF-1
T1 sequence: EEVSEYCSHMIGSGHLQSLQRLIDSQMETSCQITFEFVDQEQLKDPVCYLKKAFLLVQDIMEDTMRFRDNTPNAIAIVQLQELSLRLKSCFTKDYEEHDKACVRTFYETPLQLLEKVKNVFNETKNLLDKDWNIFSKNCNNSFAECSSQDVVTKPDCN
Procedure: (§1) To determine the relative differences in the binding affinity of intact antibodies by Biacore analysis, M-CSF was immobilized onto CMS biosensor chip via amine coupling. 0.05 μg/ml M-CSF in 10 mM Na-Acetate pH 4.0 was injected at 1 μl/min for 5 minutes to achieve RL=6-12 RU. Test antibody or Fab fragments were flowed over the modified biosensor surface at varying concentrations ranging from 100 nM to 1.5 nM in 2-fold dilutions. Test antibodies were diluted in 0.01 M HEPES pH 7.4, 0.15 M NaCL, 3 mM EDTA, 0.005% Surfactant P20 (HBS-EP) and all experiments were done at 25° C. Each concentration point and buffer blanks were run in triplicate, and data was collected over 3 minutes of association and 8 minutes of dissociation. Kinetic and affinity constants were determined using Biaevaluation software with a 1:1 interaction model/global fit.

[2] = target: T1, recombinant human M-CSF; assay: SPR (Biacore), M-CSF amine-coupled on CM5 chip, antibody flowed 100 nM to 1.5 nM, 25 C, 1:1 model, n = 5
Procedure: as §1

[3] = target: T1, recombinant human M-CSF; assay: cell-based or functional assay
[4] = target: T1, recombinant human M-CSF; assay: SPR (Biacore), M-CSF amine-coupled on CM5 chip, antibody flowed, 25 C, 1:1 model, n = 5
Procedure: as §1

[5] = target: T1, recombinant human M-CSF; assay: cell-based or functional assay; remark: listed apart in the source
[6] = target: T1, recombinant human M-CSF; assay: SPR (Biacore), M-CSF amine-coupled on CM5 chip, antibody flowed, 25 C, 1:1 model, n = 21
Procedure: as §1

[7] = target: T1, recombinant human M-CSF; assay: SPR (Biacore), M-CSF amine-coupled on CM5 chip, antibody flowed 100 nM to 1.5 nM, 25 C, 1:1 model, n = 21
Procedure: as §1

[8] = target: T1, recombinant human M-CSF; assay: SPR (Biacore), M-CSF amine-coupled on CM5 chip, antibody or Fab flowed, 25 C, 1:1 model
Procedure: Specifically, M-CSF was immobilized onto CM5 biosensor chip via amine coupling. 0.05 μg/ml M-CSF in 10mM Na Acetate pH 4.0 was injected at 1 μl/min for 5 minutes to achieve RL=6-12 RU. Test antibody (or Fab fragment) were flowed over the modified biosensor surface at varying concentrations. Test antibodies were diluted in 0.01 M HEPES pH 7.4, 0.15 M NaCL, 3 mM EDTA, 0.005% Surfactant P20 (HBS-EP) and all experiments were done at 25° C. Kinetic and affinity constants were determined using Biaevaluation software (Biacore) with a 1:1 interaction model/global fit.

[9] = target: T1, recombinant human M-CSF; assay: SPR (Biacore), antibody captured on anti-mouse Fc chip, M-CSF flowed, 25 C, 1:1 model
Procedure: Binding properties of the aforementioned antibodies were analyzed using Biacore analyses. […] The aforementioned antibodies were then captured on the anti-mouse Fc/CM5 biosensor chip at 1.5 μg/ml for 3 min at 2 μl/min. MCSF was flowed over the modified biosensor surface at varying concentrations (Rmax ˜15). Test antibodies and antigen were diluted in 0.01 M HEPES pH 7.4, 0.15 M NaCL, 3 mM EDTA, 0.005% Surfactant P20 (HBS-EP). All experiments were performed at 25° C. Kinetic and affinity constants were determined using Biaevaluation software (Biacore) with a 1:1 interaction model/global fit.

[10] = target: T1, recombinant human M-CSF; assay: SPR (Biacore), M-CSF amine-coupled on CM5 chip, antibody flowed 100 nM to 1.5 nM, 25 C, 1:1 model
Procedure: as §1

[11] = target: T1, recombinant human M-CSF; assay: SPR (Biacore), M-CSF amine-coupled on CM5 chip, antibody flowed, 25 C, 1:1 model, n = 2
Procedure: as §1

[12] = target: T1, recombinant human M-CSF; assay: SPR (Biacore), M-CSF amine-coupled on CM5 chip, antibody flowed 100 nM to 1.5 nM, 25 C, 1:1 model, n = 2
Procedure: as §1

[13] = target: T1, recombinant human M-CSF; assay: SPR (Biacore), M-CSF amine-coupled on CM5 chip, antibody flowed, 25 C, 1:1 model
Procedure: as §1

- fold decrease in binding affinity compared to the parent murine antibody [1]: ≥ 7 fold
- Kd [2]: 5.9 nM
- koff [2]: 0.00137 s⁻¹
- kon [2]: 236000 M⁻¹ s⁻¹
- IC50 Fold Loss [3]: 2.8 fold
- Kd [4]: 5.9 nM
- koff [4]: 0.00137 s⁻¹
- kon [4]: 236000 M⁻¹ s⁻¹
B1: heRX1-1.G2 (antibody)
heavy: DVQLQESGPGLVKPSQTLSLTCTVTDYSITSDYAWNWIRQFPGKKLEWMGYISYSGSTSYNPSLKSRITISRDTSKNQFSLQLNSVTAADTATYYCASFDYAHAMDYWGQGTTVTVSS
light: EIVLTQSPGTLSVSPGERVTFSCRASQSIGTSIHWYQQKTGQSPRLLIKYASERISGIPDRFSGSGSGTDFTLTISRVESEDFADYYCQQINSWPTTFGQGTKLEIKRT
notes: The legends may have 45 and 48 exchanged; also called heRX1-1-IgG2; heRX1-1.IgG2; not shown: human Gamma-2 heavy chain constant region; human Kappa light chain constant region (the printed V regions end in EIKRT, which may overlap its start)

- EC50 (M-CSF neutralization) [5]: 2 ng/mL
- Kd [6]: 0.7 nM
- koff [6]: 0.000156 s⁻¹
- kon [6]: 223000 M⁻¹ s⁻¹
- Kd [7]: 0.7 nM
- koff [7]: 0.000156 s⁻¹
- kon [7]: 223000 M⁻¹ s⁻¹
- Kd [8]: 1 nM
- koff [8]: 0.000235 s⁻¹
- kon [8]: 234000 M⁻¹ s⁻¹
- Kd [9]: 0.16 nM
- koff [9]: 0.00027 s⁻¹
- kon [9]: 1.64e+06 M⁻¹ s⁻¹
B2: murine monoclonal antibody RX1 (antibody, V domains shown)
VH: B1 heavy with T17S, K44N, T69S, S71T, S80F, A88T, A89E, T113S
VL: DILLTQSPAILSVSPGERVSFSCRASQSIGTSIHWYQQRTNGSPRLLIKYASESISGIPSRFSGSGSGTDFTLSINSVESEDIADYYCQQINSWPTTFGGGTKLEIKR
notes: Intact murine antibody; The hybridoma or commercial RX1 and the recombinant murine RX1 (rRX1, rmRX1) are treated as one molecule; also called Murine RX1; rRX1(mouse)

- Kd [8]: 10.8 nM
- koff [8]: 0.00303 s⁻¹
- kon [8]: 281000 M⁻¹ s⁻¹
B3: rRX1 Fab (mouse) (Fab, V domains shown)
VH: B1 heavy with T17S, K44N, T69S, S71T, S80F, A88T, A89E, T113S
VL: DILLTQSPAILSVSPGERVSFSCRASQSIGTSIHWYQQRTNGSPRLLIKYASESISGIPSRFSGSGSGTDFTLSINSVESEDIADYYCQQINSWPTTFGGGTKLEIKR
notes: Fab fragment; also called Fab fragment of RX1

- Kd [10]: 0.95 nM
- koff [10]: 0.000238 s⁻¹
- kon [10]: 250000 M⁻¹ s⁻¹
B4: heRX1-1.G1 (antibody)
heavy: not shown
light: B1 light
notes: heavy pMXC29 Low Risk (Kabat), Gamma 1; also called heRX1-1-IgG1; heRX1-1.IgG1; not shown: human Kappa light chain constant region (the printed V regions end in EIKRT, which may overlap its start)

- fold decrease in binding affinity compared to the parent murine antibody [1]: ≥ 7 fold
- Kd [11]: 6.3 nM
- koff [11]: 0.0011 s⁻¹
- kon [11]: 173000 M⁻¹ s⁻¹
- IC50 Fold Loss [3]: 2.2 fold
- Kd [12]: 6.3 nM
- koff [12]: 0.0011 s⁻¹
- kon [12]: 173000 M⁻¹ s⁻¹
B5: heRX1-10.G2 (antibody, V domains shown)
VH: B1 heavy with D1Q, T25S, K45G, T93V
VL: DIVLTQSPAFLSVTPGEKVTFTCQASQSIGTSIHWYQQKTDQAPKLLIKYASESISGIPSRFSGSGSGTDFTLTISSVEAEDAADYYCQQINSWPTTFGGGTKLEIKR
notes: not shown: human Gamma-2 heavy chain constant region; human Kappa light chain constant region (the V region entry may overlap its start)

- fold decrease in binding affinity compared to the parent murine antibody [1]: ≥ 7 fold
- IC50 Fold Loss [3]: 6.1 fold
- Kd [13]: 9.5 nM
- koff [13]: 0.00149 s⁻¹
- kon [13]: 157000 M⁻¹ s⁻¹
B6: heRX1-7.G2 (antibody, V domains shown)
VH: B1 heavy
VL: EIVLTQSPGTLSVSPGERVTFSCRASQSIGTSIHWYQQKTGQAPRLLIKYASESISGIPDRFSGSGSGTDFTLTISRVESEDFADYYCQQINSWPTTFGQGTKLEIK
notes: copies: 2 + 2

- Kd [10]: 1.42 nM
- koff [10]: 0.000293 s⁻¹
- kon [10]: 207000 M⁻¹ s⁻¹
B7: heRX1-1.G4 (antibody)
heavy: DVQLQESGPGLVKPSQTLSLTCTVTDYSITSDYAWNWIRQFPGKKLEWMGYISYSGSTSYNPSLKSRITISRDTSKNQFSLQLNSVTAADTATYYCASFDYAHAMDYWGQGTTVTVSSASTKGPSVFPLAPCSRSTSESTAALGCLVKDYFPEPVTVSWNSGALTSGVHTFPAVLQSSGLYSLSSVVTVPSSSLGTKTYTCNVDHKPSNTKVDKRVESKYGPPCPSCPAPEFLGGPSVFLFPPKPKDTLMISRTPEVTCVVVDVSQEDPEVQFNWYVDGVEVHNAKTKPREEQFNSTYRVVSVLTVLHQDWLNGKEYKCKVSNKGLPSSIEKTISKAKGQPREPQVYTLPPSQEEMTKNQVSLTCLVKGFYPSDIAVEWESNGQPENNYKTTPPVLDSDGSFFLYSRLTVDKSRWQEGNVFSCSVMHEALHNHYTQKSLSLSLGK
light: B1 light
notes: also called heRX1-1-IgG4; heRX1-1.IgG4; not shown: human Kappa light chain constant region (the printed V regions end in EIKRT, which may overlap its start)

- fold decrease in binding affinity compared to the parent murine antibody [1]: ≥ 7 fold
- IC50 Fold Loss [3]: 6.5 fold
- Kd [13]: 7.4 nM
- koff [13]: 0.00129 s⁻¹
- kon [13]: 175000 M⁻¹ s⁻¹
B8: heRX1-5.G2 (antibody, V domains shown)
VH: B1 heavy
VL: EIVLTQSPGTLSVSPGERVTFSCRASQSIGTSIHWYQQKTGQSPRLLIKYASESISGIPDRFSGSGSGTDFTLTISRVESEDFADYYCQQINSWPTTFGQGTKLEIKR
notes: not shown: human Gamma-2 heavy chain constant region; human Kappa light chain constant region (the printed V regions end in EIKRT, which may overlap its start)

- fold decrease in binding affinity compared to the parent murine antibody [1]: ≥ 7 fold
- IC50 Fold Loss [3]: 5.9 fold
- Kd [13]: 9.8 nM
- koff [13]: 0.00148 s⁻¹
- kon [13]: 152000 M⁻¹ s⁻¹
B9: heRX1-8.G2 (antibody, V domains shown)
VH: B1 heavy with D1Q, T25S, K45G, T93V
VL: B6 VL
notes: copies: 2 + 2

- fold decrease in binding affinity compared to the parent murine antibody [1]: ≥ 7 fold
- IC50 Fold Loss [3]: 3.6 fold
- Kd [13]: 7.2 nM
- koff [13]: 0.00144 s⁻¹
- kon [13]: 200000 M⁻¹ s⁻¹
B10: heRX1-9.G2 (antibody, V domains shown)
VH: B1 heavy
VL: B5 VL
notes: as for B5

- fold decrease in binding affinity compared to the parent murine antibody [1]: ≥ 7 fold
- IC50 Fold Loss [3]: 3.1 fold
- Kd [13]: 7.6 nM
- koff [13]: 0.00165 s⁻¹
- kon [13]: 218000 M⁻¹ s⁻¹
B11: heRX1-2.G2 (antibody, V domains shown)
VH: B1 heavy with D1Q, T25S, K45G, T93V
VL: B8 VL with S54R
notes: as for B8

- fold decrease in binding affinity compared to the parent murine antibody [1]: ≥ 7 fold
- IC50 Fold Loss [3]: 5.3 fold
- Kd [13]: 5.9 nM
- koff [13]: 0.00118 s⁻¹
- kon [13]: 201000 M⁻¹ s⁻¹
B12: heRX1-3.G2 (antibody, V domains shown)
VH: B1 heavy
VL: B8 VL with S43A, S54R, I55A, S56T
notes: as for B8

- fold decrease in binding affinity compared to the parent murine antibody [1]: ≥ 7 fold
- IC50 Fold Loss [3]: 4.6 fold
- Kd [13]: 4.6 nM
- koff [13]: 0.00108 s⁻¹
- kon [13]: 238000 M⁻¹ s⁻¹
B13: heRX1-4.G2 (antibody, V domains shown)
VH: B1 heavy with D1Q, T25S, K45G, T93V
VL: B8 VL with S43A, S54R, I55A, S56T
notes: as for B8

- Kd [8]: 9.9 nM
- koff [8]: 0.00126 s⁻¹
- kon [8]: 127000 M⁻¹ s⁻¹
- Kd [9]: 3 nM
- koff [9]: 0.00177 s⁻¹
- kon [9]: 594000 M⁻¹ s⁻¹
B14: murine monoclonal antibody 5H4 (antibody, mouse IgG1, kappa, V domains shown)
VH: EIQLQQSGPELVKTGTSVKISCKASGYSFTGYFMHWVKQSHGKSLEWIGYISCYNGDTNYNQNFKGKATFTVDTSSSTAYMQFNSLTSEDSAVYYCAREGGNYPAYWGQGTLVTVSA
VL: DIVMTQSHKFMSTSVGDRVTITCKASQNVGTAVTWYQQKPGQSPKLLIYWTSTRHAGVPDRFTGSGSGTDFTLTISDVQSEDLADYFCQQYSSYPLTFGAGTKLELKR

- Kd [9]: 0.27 nM
- koff [9]: 0.000193 s⁻¹
- kon [9]: 704000 M⁻¹ s⁻¹
B15: murine monoclonal antibody MC3 (antibody, V domains shown)
VH: DVQLQESGPGLVKPSQSLSLTCTVTGYSITSDYAWNWIRQFPGNKLEWMGYISYSGSTSYNPSLKSRISITRDTSKNQFFLQLNSVTTEDTATYYCARLETWLFDYWGQGTTLTVSS
VL: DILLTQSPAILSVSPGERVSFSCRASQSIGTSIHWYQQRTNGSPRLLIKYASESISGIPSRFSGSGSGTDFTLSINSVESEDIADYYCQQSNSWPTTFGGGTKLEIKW
notes: Hybridoma ATCC PTA-6264
